In US20230257470A1 (published 2023):

Legend:
Test in all cases: SPR (Biacore), FcγR over captured antibody; binding amount relative to IL6R-BF648/IL6R-L x100
human FcγRIa = biological target: T1, human FcγRIa (human, UniProt P12314 16-292, limits assumed)
T1 construct: also called FcyRIa; CD64

human FcγRIIa type H = biological target: T2, human FcγRIIa type H (human, UniProt P12318 36-217)
T2 construct: also called FcyRIIaH; FcγRIIa(H)
T2 sequence: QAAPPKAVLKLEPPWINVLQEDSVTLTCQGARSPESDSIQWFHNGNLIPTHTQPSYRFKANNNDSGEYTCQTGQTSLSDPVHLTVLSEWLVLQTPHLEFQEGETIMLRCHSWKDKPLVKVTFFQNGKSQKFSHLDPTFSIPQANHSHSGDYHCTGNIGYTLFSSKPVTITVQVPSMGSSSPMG

human FcγRIIb = biological target: T3, human FcγRIIb (human, UniProt P31994 43-217, limits assumed)
T3 construct: also called FcyRIfb; FcγIIB
T3 sequence: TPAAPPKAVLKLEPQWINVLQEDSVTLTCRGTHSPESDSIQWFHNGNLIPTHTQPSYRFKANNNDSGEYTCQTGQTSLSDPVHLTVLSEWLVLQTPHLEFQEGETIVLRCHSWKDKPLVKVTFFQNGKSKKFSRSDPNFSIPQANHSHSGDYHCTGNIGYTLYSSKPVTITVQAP

human FcγRIIIa type V = biological target: T4, human FcγRIIIa type V (human, UniProt P08637 17-208, limits assumed)
T4 construct: also called FcyRIIIa; FcγRIIIaV
T4 sequence (P08637 other isoform, or with tags, fused parts or gaps limits assumed): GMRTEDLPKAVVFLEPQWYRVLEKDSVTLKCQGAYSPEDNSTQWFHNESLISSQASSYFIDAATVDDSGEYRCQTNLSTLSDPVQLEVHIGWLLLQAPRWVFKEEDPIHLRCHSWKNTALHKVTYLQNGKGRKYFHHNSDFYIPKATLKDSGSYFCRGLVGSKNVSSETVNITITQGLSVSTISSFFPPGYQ

T1 sequence (P12314 16-292 limits assumed): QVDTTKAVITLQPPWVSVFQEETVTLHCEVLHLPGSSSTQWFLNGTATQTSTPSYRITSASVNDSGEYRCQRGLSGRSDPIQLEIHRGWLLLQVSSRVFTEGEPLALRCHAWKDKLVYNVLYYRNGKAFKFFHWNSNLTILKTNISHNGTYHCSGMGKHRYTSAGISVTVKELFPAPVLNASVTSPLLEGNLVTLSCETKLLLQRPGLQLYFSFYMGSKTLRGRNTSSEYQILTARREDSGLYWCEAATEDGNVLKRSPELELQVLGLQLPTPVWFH

Row | Binder | relative binding (human FcγRIa) | relative binding (human FcγRIIa type H) | relative binding (human FcγRIIb) | relative binding (human FcγRIIIa type V)
1 | IL6R-2B169/IL6R-L (antibody, human IgG1, name in EU numbering) heavy: QVQLQESGPGLVKPSETLSLTCAVSGHSISHDHAWSWVRQPPGEGLEWIGFISYSGITNYNPSLQGRVTISRDNSKNTLYLQMNSLRAEDTAVYYCARSLARTTAMDYWGEGTLVTVSSASTKGPSVFPLAPSSKSTSGGTAALGCLVKDYFPEPVTVSWNSGALTSGVHTFPAVLQSSGLYSLSSVVTVPSSSLGTQTYICNVNHKPSNTKVDKKVEPKSCDKTHTCPPCPAPELLGGDSVFLFPPKPKDTLMISRTPEVTCVVVDVSHEDPEVKFNWYVDGVEVHNAKTKPREEQYNSTYRVVSVLTVLHQDWLNGKEYKCKISNKALPAPIEKTISKAKGQPREPQVYTLPPSRDELTKNQVSLTCLVKGFYPSDIAVEWESNGQPENNYKTTPPVLDSDGSFFLYSKLTVDKSRWQQGNVFSCSVMHEALHNHYTQESLSLSP light: DIQMTQSPSSLSASVGDRVTITCRASQDISSYLNWYQQKPGKAPKLLIYYTSRLHSGVPSRFSGSGSGTDFTFTISSLQPEDIATYYCQQGNTLPYTFGQGTKVEIK | 73 % of IL6R-BF648/IL6R-L | 83 % of IL6R-BF648/IL6R-L | 104 % of IL6R-BF648/IL6R-L | 94 % of IL6R-BF648/IL6R-L
2 | IL6R-BP107/IL6R-L (antibody, human IgG1, name in EU numbering) heavy: QVQLQESGPGLVKPSETLSLTCAVSGHSISHDHAWSWVRQPPGEGLEWIGFISYSGITNYNPSLQGRVTISRDNSKNTLYLQMNSLRAEDTAVYYCARSLARTTAMDYWGEGTLVTVSSASTKGPSVFPLAPSSKSTSGGTAALGCLVKDYFPEPVTVSWNSGALTSGVHTFPAVLQSSGLYSLSSVVTVPSSSLGTQTYICNVNHKPSNTKVDKKVEPKSCDKTHTCPPCPAPELLGGDSVFLFPPKPKDTLMISRTPEVTCVVVDVSEEDPEVKFNWYVDGVEVHNAKTKPREEQYNSTYRVVSVLTVLHQDWLNGKEYKCKVSNKALPAPIEKTISKAKGQPREPQVYTLPPSRDELTKNQVSLTCLVKGFYPSDIAVEWESNGQPENNYKTTPPVLDSDGSFFLYSKLTVDKSRWQQGNVFSCSVMHEALHNHYTQESLSLSP light: DIQMTQSPSSLSASVGDRVTITCRASQDISSYLNWYQQKPGKAPKLLIYYTSRLHSGVPSRFSGSGSGTDFTFTISSLQPEDIATYYCQQGNTLPYTFGQGTKVEIK | 123 % of IL6R-BF648/IL6R-L | 114 % of IL6R-BF648/IL6R-L | 118 % of IL6R-BF648/IL6R-L | 129 % of IL6R-BF648/IL6R-L
3 | IL6R-2B171/IL6R-L (antibody, human IgG1, name in EU numbering) heavy: QVQLQESGPGLVKPSETLSLTCAVSGHSISHDHAWSWVRQPPGEGLEWIGFISYSGITNYNPSLQGRVTISRDNSKNTLYLQMNSLRAEDTAVYYCARSLARTTAMDYWGEGTLVTVSSASTKGPSVFPLAPSSKSTSGGTAALGCLVKDYFPEPVTVSWNSGALTSGVHTFPAVLQSSGLYSLSSVVTVPSSSLGTQTYICNVNHKPSNTKVDKKVEPKSCDKTHTCPPCPAPELLGGDSVFLFPPKPKDTLMISRTPEVTCVVVDVSHEDPEVKFNWYVDGVEVHNAKTKPREEQYNSTYRVVSVLTVLHQDWLNGKEYKCKLSNKALPAPIEKTISKAKGQPREPQVYTLPPSRDELTKNQVSLTCLVKGFYPSDIAVEWESNGQPENNYKTTPPVLDSDGSFFLYSKLTVDKSRWQQGNVFSCSVMHEALHNHYTQESLSLSP light: DIQMTQSPSSLSASVGDRVTITCRASQDISSYLNWYQQKPGKAPKLLIYYTSRLHSGVPSRFSGSGSGTDFTFTISSLQPEDIATYYCQQGNTLPYTFGQGTKVEIK | 116 % of IL6R-BF648/IL6R-L | 115 % of IL6R-BF648/IL6R-L | 113 % of IL6R-BF648/IL6R-L | 122 % of IL6R-BF648/IL6R-L
4 | IL6R-BP100/IL6R-L (antibody, human IgG1, name in EU numbering) heavy: QVQLQESGPGLVKPSETLSLTCAVSGHSISHDHAWSWVRQPPGEGLEWIGFISYSGITNYNPSLQGRVTISRDNSKNTLYLQMNSLRAEDTAVYYCARSLARTTAMDYWGEGTLVTVSSASTKGPSVFPLAPSSKSTSGGTAALGCLVKDYFPEPVTVSWNSGALTSGVHTFPAVLQSSGLYSLSSVVTVPSSSLGTQTYICNVNHKPSNTKVDKKVEPKSCDKTHTCPPCPAPELLGGDSVFLFPPKPKDTLMISRTPEVTCVVVDVAHEDPEVKFNWYVDGVEVHNAKTKPREEQYNSTYRVVSVLTVLHQDWLNGKEYKCKVSNKALPAPIEKTISKAKGQPREPQVYTLPPSRDELTKNQVSLTCLVKGFYPSDIAVEWESNGQPENNYKTTPPVLDSDGSFFLYSKLTVDKSRWQQGNVFSCSVMHEALHNHYTQESLSLSP light: DIQMTQSPSSLSASVGDRVTITCRASQDISSYLNWYQQKPGKAPKLLIYYTSRLHSGVPSRFSGSGSGTDFTFTISSLQPEDIATYYCQQGNTLPYTFGQGTKVEIK | 121 % of IL6R-BF648/IL6R-L | 128 % of IL6R-BF648/IL6R-L | 110 % of IL6R-BF648/IL6R-L | 138 % of IL6R-BF648/IL6R-L
5 | IL6R-BP103/IL6R-L (antibody, human IgG1, name in EU numbering) heavy: QVQLQESGPGLVKPSETLSLTCAVSGHSISHDHAWSWVRQPPGEGLEWIGFISYSGITNYNPSLQGRVTISRDNSKNTLYLQMNSLRAEDTAVYYCARSLARTTAMDYWGEGTLVTVSSASTKGPSVFPLAPSSKSTSGGTAALGCLVKDYFPEPVTVSWNSGALTSGVHTFPAVLQSSGLYSLSSVVTVPSSSLGTQTYICNVNHKPSNTKVDKKVEPKSCDKTHTCPPCPAPELLGGDSVFLFPPKPKDTLMISRTPEVTCVVVDVVHEDPEVKFNWYVDGVEVHNAKTKPREEQYNSTYRVVSVLTVLHQDWLNGKEYKCKVSNKALPAPIEKTISKAKGQPREPQVYTLPPSRDELTKNQVSLTCLVKGFYPSDIAVEWESNGQPENNYKTTPPVLDSDGSFFLYSKLTVDKSRWQQGNVFSCSVMHEALHNHYTQESLSLSP light: DIQMTQSPSSLSASVGDRVTITCRASQDISSYLNWYQQKPGKAPKLLIYYTSRLHSGVPSRFSGSGSGTDFTFTISSLQPEDIATYYCQQGNTLPYTFGQGTKVEIK | 56 % of IL6R-BF648/IL6R-L | 69 % of IL6R-BF648/IL6R-L | 107 % of IL6R-BF648/IL6R-L | 77 % of IL6R-BF648/IL6R-L
6 | IL6R-2B172/IL6R-L (antibody, human IgG1, name in EU numbering) heavy: QVQLQESGPGLVKPSETLSLTCAVSGHSISHDHAWSWVRQPPGEGLEWIGFISYSGITNYNPSLQGRVTISRDNSKNTLYLQMNSLRAEDTAVYYCARSLARTTAMDYWGEGTLVTVSSASTKGPSVFPLAPSSKSTSGGTAALGCLVKDYFPEPVTVSWNSGALTSGVHTFPAVLQSSGLYSLSSVVTVPSSSLGTQTYICNVNHKPSNTKVDKKVEPKSCDKTHTCPPCPAPELLGGDSVFLFPPKPKDTLMISRTPEVTCVVVDVSHEDPEVKFNWYVDGVEVHNAKTKPREEQYNSTYRVVSVLTVLHQDWLNGKEYKCKMSNKALPAPIEKTISKAKGQPREPQVYTLPPSRDELTKNQVSLTCLVKGFYPSDIAVEWESNGQPENNYKTTPPVLDSDGSFFLYSKLTVDKSRWQQGNVFSCSVMHEALHNHYTQESLSLSP light: DIQMTQSPSSLSASVGDRVTITCRASQDISSYLNWYQQKPGKAPKLLIYYTSRLHSGVPSRFSGSGSGTDFTFTISSLQPEDIATYYCQQGNTLPYTFGQGTKVEIK | 140 % of IL6R-BF648/IL6R-L | 179 % of IL6R-BF648/IL6R-L | 132 % of IL6R-BF648/IL6R-L | 144 % of IL6R-BF648/IL6R-L
7 | IL6R-BP106/IL6R-L (antibody, human IgG1, name in EU numbering) heavy: QVQLQESGPGLVKPSETLSLTCAVSGHSISHDHAWSWVRQPPGEGLEWIGFISYSGITNYNPSLQGRVTISRDNSKNTLYLQMNSLRAEDTAVYYCARSLARTTAMDYWGEGTLVTVSSASTKGPSVFPLAPSSKSTSGGTAALGCLVKDYFPEPVTVSWNSGALTSGVHTFPAVLQSSGLYSLSSVVTVPSSSLGTQTYICNVNHKPSNTKVDKKVEPKSCDKTHTCPPCPAPELLGGDSVFLFPPKPKDTLMISRTPEVTCVVVDVSDEDPEVKFNWYVDGVEVHNAKTKPREEQYNSTYRVVSVLTVLHQDWLNGKEYKCKVSNKALPAPIEKTISKAKGQPREPQVYTLPPSRDELTKNQVSLTCLVKGFYPSDIAVEWESNGQPENNYKTTPPVLDSDGSFFLYSKLTVDKSRWQQGNVFSCSVMHEALHNHYTQESLSLSP light: DIQMTQSPSSLSASVGDRVTITCRASQDISSYLNWYQQKPGKAPKLLIYYTSRLHSGVPSRFSGSGSGTDFTFTISSLQPEDIATYYCQQGNTLPYTFGQGTKVEIK | 127 % of IL6R-BF648/IL6R-L | 110 % of IL6R-BF648/IL6R-L | 116 % of IL6R-BF648/IL6R-L | 127 % of IL6R-BF648/IL6R-L
8 | IL6R-B3/IL6R-L (antibody, human IgG1, IL6R-G1d with K439E (EU numbering)) heavy: not shown light: DIQMTQSPSSLSASVGDRVTITCRASQDISSYLNWYQQKPGKAPKLLIYYTSRLHSGVPSRFSGSGSGTDFTFTISSLQPEDIATYYCQQGNTLPYTFGQGTKVEIK | 145 % of IL6R-BF648/IL6R-L | 1600 % of IL6R-BF648/IL6R-L | 58 % of IL6R-BF648/IL6R-L | 3260 % of IL6R-BF648/IL6R-L
9 | IL6R-BP102/IL6R-L (antibody, human IgG1, name in EU numbering) heavy: QVQLQESGPGLVKPSETLSLTCAVSGHSISHDHAWSWVRQPPGEGLEWIGFISYSGITNYNPSLQGRVTISRDNSKNTLYLQMNSLRAEDTAVYYCARSLARTTAMDYWGEGTLVTVSSASTKGPSVFPLAPSSKSTSGGTAALGCLVKDYFPEPVTVSWNSGALTSGVHTFPAVLQSSGLYSLSSVVTVPSSSLGTQTYICNVNHKPSNTKVDKKVEPKSCDKTHTCPPCPAPELLGGDSVFLFPPKPKDTLMISRTPEVTCVVVDVQHEDPEVKFNWYVDGVEVHNAKTKPREEQYNSTYRVVSVLTVLHQDWLNGKEYKCKVSNKALPAPIEKTISKAKGQPREPQVYTLPPSRDELTKNQVSLTCLVKGFYPSDIAVEWESNGQPENNYKTTPPVLDSDGSFFLYSKLTVDKSRWQQGNVFSCSVMHEALHNHYTQESLSLSP light: DIQMTQSPSSLSASVGDRVTITCRASQDISSYLNWYQQKPGKAPKLLIYYTSRLHSGVPSRFSGSGSGTDFTFTISSLQPEDIATYYCQQGNTLPYTFGQGTKVEIK | 104 % of IL6R-BF648/IL6R-L | 66 % of IL6R-BF648/IL6R-L | 106 % of IL6R-BF648/IL6R-L | 86 % of IL6R-BF648/IL6R-L
